From IntAct's records for PubMed 17872410

B1: Adagio protein 3 (Arabidopsis thaliana (Mouse-ear cress)), Q9C9W9 (parent)
chain: MAREHAIGEATGKRKKRGRVEEAEEYCNDGIEEQVEDEKLPLEVGMFYYPMTPPSFIVSDALEPDFPLIYVNRVFEVFTGYRADEVLGRNCRFLQYRDPRAQRRHPLVDPVVVSEIRRCLEEGIEFQGELLNFRKDGTPLVNRLRLAPIRDDDGTITHVIGIQVFSETTIDLDRVSYPVFKHKQQLDQTSECLFPSGSPRFKEHHEDFCGILQLSDEVLAHNILSRLTPRDVASIGSACRRLRQLTKNESVRKMVCQNAWGKEITGTLEIMTKKLRWGRLARELTTLEAVCWRKFTVGGIVQPSRCNFSACAVGNRLVLFGGEGVNMQPLDDTFVLNLDAECPEWQRVRVTSSPPGRWGHTLSCLNGSWLVVFGGCGRQGLLNDVFVLDLDAKHPTWKEVAGGTPPLPRSWHSSCTIEGSKLVVSGGCTDAGVLLSDTFLLDLTTDKPTWKEIPTSWAPPSRLGHSLSVFGRTKILMFGGLANSGHLKLRSGEAYTIDLEDEEPRWRELECSAFPGVVVPPPRLDHVAVSMPCGRVIIFGGSIAGLHSPSQLFLIDPAEEKPSWRILNVPGKPPKLAWGHSTCVVGGTRVLVLGGHTGEEWILNELHELCLASRQDSDL
partner: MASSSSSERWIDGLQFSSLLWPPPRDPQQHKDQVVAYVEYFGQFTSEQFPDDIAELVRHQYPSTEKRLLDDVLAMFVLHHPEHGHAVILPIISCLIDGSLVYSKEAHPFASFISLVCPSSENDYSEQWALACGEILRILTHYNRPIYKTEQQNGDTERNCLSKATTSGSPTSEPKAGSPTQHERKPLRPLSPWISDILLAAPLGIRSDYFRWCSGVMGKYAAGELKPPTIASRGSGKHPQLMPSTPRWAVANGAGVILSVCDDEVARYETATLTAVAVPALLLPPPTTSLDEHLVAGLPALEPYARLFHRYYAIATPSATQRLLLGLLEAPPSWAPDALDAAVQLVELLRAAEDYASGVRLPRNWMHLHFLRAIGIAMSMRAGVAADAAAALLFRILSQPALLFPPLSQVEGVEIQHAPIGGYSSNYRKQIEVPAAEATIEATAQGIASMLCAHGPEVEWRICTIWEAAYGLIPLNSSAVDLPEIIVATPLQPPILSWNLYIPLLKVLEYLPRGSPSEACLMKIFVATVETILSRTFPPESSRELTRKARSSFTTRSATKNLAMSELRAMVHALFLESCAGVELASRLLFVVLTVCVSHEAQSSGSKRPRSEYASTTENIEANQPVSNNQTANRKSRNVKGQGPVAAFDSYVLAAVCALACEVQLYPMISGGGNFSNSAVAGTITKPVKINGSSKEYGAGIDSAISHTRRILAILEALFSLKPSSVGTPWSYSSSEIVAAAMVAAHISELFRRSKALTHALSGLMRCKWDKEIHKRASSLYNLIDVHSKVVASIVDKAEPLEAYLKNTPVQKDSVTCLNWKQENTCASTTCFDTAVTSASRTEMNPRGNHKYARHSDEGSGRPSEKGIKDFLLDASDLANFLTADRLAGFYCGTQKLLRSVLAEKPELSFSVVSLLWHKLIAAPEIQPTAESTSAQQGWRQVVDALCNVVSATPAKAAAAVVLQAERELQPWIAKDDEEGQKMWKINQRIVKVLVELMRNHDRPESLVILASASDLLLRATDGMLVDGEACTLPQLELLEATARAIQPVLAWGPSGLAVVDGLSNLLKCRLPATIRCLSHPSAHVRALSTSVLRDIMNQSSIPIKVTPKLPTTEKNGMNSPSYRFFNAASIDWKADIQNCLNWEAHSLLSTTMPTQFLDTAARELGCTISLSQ

Variants of: B1
Conditions: with gigan_arath GI

Variant	effect of a mutation on the interaction
R92D	decreasing interaction
C91A	decreasing interaction
Q163L	disrupting interaction
